From the supplement of paper PMC7877785
± gives the uncertainty stated by the source.

Test: self-splicing fitness, log relative to wild type (ln ratio); higher = more splicing; Tetrahymena group I intron in knt gene, E. coli kanamycin selection, DiMSum; sequences stand for … in CUCUCU…GGAGGGAAAAGUUAUCAGGCAUGCACCUGGUAGCUAGUCUUUAAACCAAUAGAUUGCAUCGGUUUAAAAGGCAAGACCGUCAAAUUGCGGGAAAGGGGUCAACAGCCGUUCAGUACCAAGUCUCAGGGGAAACUUUGAGAUGGCCUUGCAAAGGGUAUGGUAAUAAGCUGACGGACAUGGUCCUAACCACGCAGCCAAGUCCUAAGUCAACAGAUCUUCUGUUGAUAUGGAUGCAGUUCACAGACUAAAUGUCGGUCGGGGAAGAUGUAUUCUUCUCAUAAGAUAUAGUCGGACCUCUCCUUAAUGGGAGCUAGCGGAUGAAGUGAUGCAACACUGGAGCCGCUGGGAACUAAUUUGUAUGCGAAAGUAUAUUGAUUAGUUUUGGAGUACUCGUGGUCG
Outline: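 Library with all eight P1ex-region intron nucleotides randomised, intron inside the knt kanamycin-resistance gene on pET-22b(+), in E. coli BL21(DE3). Cells grew overnight at 37°C or 30°C on LB agar with or without 25 μg/mL kanamycin (plus 100 μg/mL carbenicillin, 50 μM IPTG, 0.2% rhamnose), in six replicate transformations. Pooled colonies were amplicon-sequenced on Illumina HiSeq 2500. DiMSum fitness is the error-weighted combination of wild-type-normalised replicate fold changes, kanamycin versus none.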

| Sequence | self-splicing fitness (ln) (30 °C) | self-splicing fitness (ln) (37 °C) |
| --- | --- | --- |
| GACCAGCAAUAUUACGCAUC | -0.629 ± 0.064 | -0.599 ± 0.076 |
| GACCAGCAAUAUUACGCCAC |  | -2.73 ± 0.46 |
| GACCAGCAAUAUUACGCCUC | -1.17 ± 0.097 | -0.623 ± 0.11 |
| GACCAGCAAUAUUACGCGCA | -0.663 ± 0.065 | 0.131 ± 0.093 |
| GACCAGCAAUAUUACGCUAU | -1.28 ± 0.074 | 0.126 ± 0.082 |
| GACCAGCAAUAUUACGCUGA | -1.04 ± 0.11 | -0.811 ± 0.097 |
| GACCAGCAAUAUUACGCUUA | -0.722 ± 0.053 | 0.0868 ± 0.064 |
| GACCAGCAAUAUUACGGCAA | -0.359 ± 0.067 | -0.32 ± 0.078 |
| GACCAGCAAUAUUACGGGCG | 0.17 ± 0.059 | 0.374 ± 0.078 |
| GACCAGCAAUAUUACGGUAU | -1.29 ± 0.056 | -0.678 ± 0.068 |
| GACCAGCAAUAUUACGUAUA | -1.06 ± 0.059 | -0.251 ± 0.079 |
| GACCAGCAAUAUUACGUCUU | 0.335 ± 0.05 | 0.369 ± 0.068 |
| GACCAGCAAUAUUACGUGAU | -0.306 ± 0.05 | -0.151 ± 0.063 |
| GACCAGCAAUAUUACGUGUU | -3.73 ± 0.096 | -2.44 ± 0.11 |
| GACCAGCAAUAUUACGUUAU | -0.752 ± 0.045 | -0.147 ± 0.062 |
| GACCAGCAAUAUUACGUUGU | -1.11 ± 0.047 | -0.336 ± 0.063 |
| GACGAGCAAUAUUACGAACC | -3.09 ± 0.18 | -0.495 ± 0.13 |
| GACGAGCAAUAUUACGAACG | -0.929 ± 0.34 |  |
| GACGAGCAAUAUUACGAAUU | -3.49 ± 0.14 | -2.55 ± 0.14 |
| GACGAGCAAUAUUACGACAA |  | -1.24 ± 0.24 |
| GACGAGCAAUAUUACGACUA | -1.94 ± 0.45 | -0.17 ± 0.37 |
| GACGAGCAAUAUUACGAUCC | -0.986 ± 0.21 | -0.739 ± 0.4 |
| GACGAGCAAUAUUACGAUCG | -2.3 ± 0.23 | -2.03 ± 0.19 |
| GACGAGCAAUAUUACGCAGC | -3.4 ± 0.27 | -1.69 ± 0.28 |
| GACGAGCAAUAUUACGCAUU | -2.74 ± 0.21 | -2.44 ± 0.21 |

| Sequence | self-splicing fitness (ln) (30 °C) | self-splicing fitness (ln) (37 °C) |
| --- | --- | --- |
| GACGAGCAAUAUUACGCGCG | -3.15 ± 0.16 | -2.7 ± 0.25 |
| GACGAGCAAUAUUACGGCAA | -1.91 ± 0.2 | -0.607 ± 0.14 |
| GACGAGCAAUAUUACGGGUG | -4.16 ± 0.31 | -1.89 ± 0.16 |
| GACGAGCAAUAUUACGGUCG | -2.31 ± 0.097 | -0.868 ± 0.12 |
| GACGAGCAAUAUUACGGUUC |  | -3.11 ± 0.47 |
| GACGAGCAAUAUUACGUAAC | -3.16 ± 0.23 | -0.414 ± 0.18 |
| GACGAGCAAUAUUACGUAAG | -3.67 ± 0.41 | -0.245 ± 0.22 |
| GACGAGCAAUAUUACGUAAU | -2.61 ± 0.34 | -2.16 ± 0.17 |
| GACGAGCAAUAUUACGUCAA | -3.11 ± 0.27 |  |
| GACGAGCAAUAUUACGUGAC | -2.77 ± 0.31 | -1.48 ± 0.26 |
| GACGAGCAAUAUUACGUGGU | -2.84 ± 0.1 | -2.77 ± 0.14 |
| GACUAGCAAUAUUACGAAAU | -1.07 ± 0.16 | 0.651 ± 0.26 |
| GACUAGCAAUAUUACGACGC | 0.125 ± 0.1 | 0.0388 ± 0.14 |
| GACUAGCAAUAUUACGAGAA | -1.29 ± 0.27 | -1.53 ± 0.17 |
| GACUAGCAAUAUUACGAGAU | -2.93 ± 0.19 | -1.57 ± 0.21 |
| GACUAGCAAUAUUACGCAUC | -3.16 ± 0.17 | -2.95 ± 0.22 |
| GACUAGCAAUAUUACGCCAG | -1.31 ± 0.22 |  |
| GACUAGCAAUAUUACGCCCU | -9.77e-06 ± 0.2 | -0.315 ± 0.21 |
| GACUAGCAAUAUUACGCGUU |  | -3.83 ± 0.39 |
| GACUAGCAAUAUUACGCUGU | -3.22 ± 0.2 | -2.83 ± 0.28 |
| GACUAGCAAUAUUACGCUUG | -1.96 ± 0.1 | -1.28 ± 0.13 |
| GACUAGCAAUAUUACGGCGG | -3.72 ± 0.21 | -2.14 ± 0.13 |
| GACUAGCAAUAUUACGGCUU | -0.318 ± 0.099 | 0.0615 ± 0.14 |
| GACUAGCAAUAUUACGGGGA | -2.06 ± 0.11 | -0.995 ± 0.1 |
| GACUAGCAAUAUUACGUCAC | -3.36 ± 0.4 |  |

| Sequence | self-splicing fitness (ln) (30 °C) | self-splicing fitness (ln) (37 °C) |
| --- | --- | --- |
| GACUAGCAAUAUUACGUGGA | -1.46 ± 0.13 | -1.07 ± 0.16 |
| GACUAGCAAUAUUACGUGUG | -1.12 ± 0.055 | -0.793 ± 0.073 |
| GACUAGCAAUAUUACGUUAG | -4.25 ± 0.23 | -3.17 ± 0.23 |
| GACUAGCAAUAUUACGUUGA | -2.07 ± 0.21 | -1.59 ± 0.15 |
| GACUAGCAAUAUUACGUUUU | -2.43 ± 0.095 | -1.42 ± 0.11 |
| GAGAAGCAAUAUUACGAAGU | -2.98 ± 0.24 | -1.16 ± 0.27 |
| GAGAAGCAAUAUUACGAGAC | -2.38 ± 0.3 | -2.64 ± 0.28 |
| GAGAAGCAAUAUUACGAUAG | -3.28 ± 0.14 | -2.28 ± 0.17 |
| GAGAAGCAAUAUUACGAUGG | -2.74 ± 0.16 | -1.69 ± 0.18 |
| GAGAAGCAAUAUUACGAUGU | -1.12 ± 0.13 | -0.819 ± 0.21 |
| GAGAAGCAAUAUUACGCAGG | -2.26 ± 0.16 | -2.91 ± 0.2 |
| GAGAAGCAAUAUUACGCGGC | -3.03 ± 0.23 | -0.0876 ± 0.18 |
| GAGAAGCAAUAUUACGCGUU | -2.08 ± 0.23 | -0.752 ± 0.18 |
| GAGAAGCAAUAUUACGGCCG | -0.178 ± 0.17 | -0.256 ± 0.34 |
| GAGAAGCAAUAUUACGGCGU | -0.403 ± 0.12 | 0.0558 ± 0.16 |
| GAGAAGCAAUAUUACGUAAU | -1.88 ± 0.1 | -0.98 ± 0.11 |
| GAGAAGCAAUAUUACGUACG | -1.42 ± 0.1 | -0.572 ± 0.12 |
| GAGAAGCAAUAUUACGUCGC | -2.17 ± 0.42 |  |
| GAGAAGCAAUAUUACGUUAA | -2.68 ± 0.2 | -2.18 ± 0.24 |
| GAGAAGCAAUAUUACGUUUA | -2.13 ± 0.12 | -0.99 ± 0.12 |
| GAGCAGCAAUAUUACGACAU | -1.29 ± 0.013 | -0.608 ± 0.033 |
| GAGCAGCAAUAUUACGAUGA | -2.62 ± 0.25 | -1.03 ± 0.14 |
| GAGCAGCAAUAUUACGCGCA | -0.638 ± 0.1 | 0.461 ± 0.12 |
| GAGCAGCAAUAUUACGCGGA | -2.11 ± 0.11 | -0.965 ± 0.09 |
| GAGCAGCAAUAUUACGGAAA | -3.08 ± 0.24 | -2.84 ± 0.21 |

| Sequence | self-splicing fitness (ln) (30 °C) | self-splicing fitness (ln) (37 °C) |
| --- | --- | --- |
| GAGCAGCAAUAUUACGUCCA | -1.3 ± 0.3 | -0.418 ± 0.2 |
| GAGCAGCAAUAUUACGUUGG | -0.945 ± 0.19 | -2.43 ± 0.23 |
| GAGGAGCAAUAUUACGACUU | -2.79 ± 0.23 | -1.97 ± 0.2 |
| GAGGAGCAAUAUUACGAGUU | -3.46 ± 0.35 | -2.05 ± 0.21 |
| GAGGAGCAAUAUUACGAUUG |  | -1.93 ± 0.29 |
| GAGGAGCAAUAUUACGCAAU | -2.36 ± 0.36 |  |
| GAGGAGCAAUAUUACGCAGG | -1.91 ± 0.35 | -2.08 ± 0.36 |
| GAGGAGCAAUAUUACGCGAG |  | -2.99 ± 0.35 |
| GAGGAGCAAUAUUACGCGCA | -2.42 ± 0.2 | -0.968 ± 0.16 |
| GAGGAGCAAUAUUACGCGCU | -3.28 ± 0.16 | -2.06 ± 0.16 |
| GAGGAGCAAUAUUACGCUAC | -3.94 ± 0.37 | -2.66 ± 0.33 |
| GAGGAGCAAUAUUACGCUAG |  | -1.8 ± 0.27 |
| GAGGAGCAAUAUUACGGUAU | -2.88 ± 0.35 | -1.25 ± 0.45 |
| GAGGAGCAAUAUUACGUCAC | -2.85 ± 0.25 |  |
| GAGGAGCAAUAUUACGUCGA | -2.17 ± 0.16 | -1.61 ± 0.15 |
| GAGGAGCAAUAUUACGUCUA | -2.04 ± 0.12 | -0.687 ± 0.15 |
| GAGGAGCAAUAUUACGUCUC |  | -0.811 ± 0.49 |
| GAGGAGCAAUAUUACGUCUG | -1.73 ± 0.15 | -1.07 ± 0.18 |
| GAGGAGCAAUAUUACGUCUU | -3.65 ± 0.2 | -2.35 ± 0.23 |
| GAGGAGCAAUAUUACGUGAA | -2.45 ± 0.3 | -1.74 ± 0.3 |
| GAGGAGCAAUAUUACGUGAC | -1.97 ± 0.3 | -0.137 ± 0.26 |
| GAGGAGCAAUAUUACGUUGU |  | -1.87 ± 0.33 |
| GAGUAGCAAUAUUACGAACC | -1.17 ± 0.12 | -0.433 ± 0.14 |
| GAGUAGCAAUAUUACGAACU | -0.979 ± 0.14 | -0.323 ± 0.23 |
| GAGUAGCAAUAUUACGAAGA | -2.63 ± 0.3 |  |
